The subject of the data set is Sleeping Beauty transposase SB10 (synthetic (reconstructed salmonid)). Put plainly: cell_activity.

The results in this text go back to US20040077572.

Consider Lo(AAG) transposon, for which, for the setting “relative excision”, the activity was 11%. Substance LoLi-LiLo transposon showed an activity (relative excision, transposition 101%) of 95%. Substance LoLo-RiRo transposon showed an activity (relative excision, transposition 45%) of 46%. For the setting “transposition reduced nearly 85%”, LoLo-RoRo transposon had an activity of 15%.

As to RoRi-RiRo transposon, under “relative excision, transposition 29%”, the activity worked out at 43%. Under “relative transposition in HeLa”, “TANNNNCAGTTGAAGTCGGAAGTTTACATACACTTAAG (double strand) [TAN4Lo transposon]” yielded an activity of 30%. The substance pT2/SV40Neo transposon returned an activity (just under four-fold over pT/SV40neo) of 4 fold.
